Experimental data published in the Immune Epitope Database (IEDB).

What was measured:
Details in all cases: source organism: Homo sapiens
[1] = target: HLA-A*02:01; assay: IEDB peptide-MHC binding, purified MHC/competitive/radioactivity; filed as Kd, often an IC50 or EC50 that approximates it; ≥ and ≤ were set here for values at or beyond the usual limits of such assays
[2] = target: HLA-B*07:02; assay: as above
[3] = target: HLA-A*03:01; assay: IEDB peptide-MHC binding, purified MHC/competitive/radioactivity; ≥ and ≤ were set here for values at or beyond the usual limits of such assays
[4] = target: HLA-A*11:01; assay: as above
[5] = target: HLA-A*03:01; assay: IEDB peptide-MHC binding, purified MHC/competitive/radioactivity; filed as Kd, often an IC50 or EC50 that approximates it; ≥ and ≤ were set here for values at or beyond the usual limits of such assays
[6] = target: HLA-A*11:01; assay: as above
[7] = target: HLA-B*27:01; assay: IEDB peptide-MHC binding, purified MHC/competitive/radioactivity; ≥ and ≤ were set here for values at or beyond the usual limits of such assays
[8] = target: HLA-B*08:01; assay: IEDB peptide-MHC binding, purified MHC/competitive/radioactivity; filed as Kd, often an IC50 or EC50 that approximates it; ≥ and ≤ were set here for values at or beyond the usual limits of such assays
[9] = target: HLA-B*27:01; assay: as above
[10] = target: HLA-A*24:02; assay: as above

Q: TINKEEAL was tested. Which Kd [1] did it give?
A: ≥ 30 µM

Q: Which Kd [2] does the source give for EALQRPVASDF here?
A: ≥ 30 µM

Q: How did the Kd [1] turn out when DLSSCITQGKA was run?
A: ≥ 50 µM

Q: For CITQGKAI, which Kd [1] is on record?
A: ≥ 50 µM

Q: With ATGFKQSSK as the sequence, how does the IC50 [3] read?
A: 0.3 µM

Q: What about the IC50 [4] of the same sequence?
A: 0.097 µM

Q: What does the source list for KQSSKALQR?
A: IC50 [3]: 0.043 µM; IC50 [4]: 0.273 µM

Q: For TGFKQSSK, which Kd [5] is on record?
A: ≥ 30 µM

Q: And the Kd [6]?
A: ≥ 30 µM

Q: Which results are given for GKQSSKALQR?
A: IC50 [3]: 0.545 µM; Kd [6]: ≥ 5 µM

Q: With GFKQSSKAL as the sequence, how does the IC50 [7] read?
A: 0.19 µM

Q: For VASGAGEAAI, which Kd [1] is on record?
A: ≥ 50 µM

Q: ATGFKQSSKAL was tested. Which Kd [1] did it give?
A: ≥ 30 µM

Q: And the Kd [8]?
A: 3.6 µM

Q: How did the Kd [9] turn out when NKEEALQR was run?
A: ≥ 30 µM

Q: For GFKQSSKALQR, which IC50 [3] is on record?
A: 0.81 µM

Q: And the Kd [6]?
A: 2.15 µM

Q: For HVASGAGEAAI, which Kd [1] is on record?
A: ≥ 50 µM

Q: Which Kd [5] does the source give for TINKEEALQR here?
A: ≥ 30 µM

Q: And the Kd [6]?
A: ≥ 30 µM

Q: For HSATGFKQSSK, which IC50 [3] is on record?
A: 0.4 µM

Q: What about the IC50 [4] of the same sequence?
A: 0.125 µM

Q: Which Kd [1] does the source give for PLTINKEEAL here?
A: ≥ 30 µM

Q: Which Kd [10] does the source give for KALQRPVSDF here?
A: ≥ 30 µM

Q: LTINKEEAL was tested. Which Kd [1] did it give?
A: ≥ 30 µM

Q: What about the Kd [8] of the same sequence?
A: 1.9 µM

Q: Which results are given for SATGFKQSSK?
A: Kd [5]: 5.45 µM; Kd [6]: 3.53 µM

Q: Which results are given for QSSKALQR?
A: Kd [5]: ≥ 30 µM; Kd [6]: ≥ 30 µM

Q: For INKEEALQR, which Kd [6] is on record?
A: ≥ 30 µM
